The values that follow come from the DeepSol protein solubility set.

The data set in a line: soluble on expression in E. coli; label from the status in PepcDB or PDB records.
Take “MGSDKIHHHHHHMSDFFIETTKADKVLPTNSRPKFFAFGIPSYTNLGDQAVSLAQRKYIENEFPEYQYIEILEDDNDEGIEAVKKIITSQDIVSFVGGGNMGSLYTNHEAARRKVFSTFVNNLTISFPQSIHFEDTPSGLKEQKLSQEAYGKNRHLFLIARDAQSYHRMQTTFDNQVLFTPDMVLYFKASHYDFKRSGALFVLRHDGEKVVGDSLIDSMKKMLDNNRPLKRTDTVLDTVKRITPINREKLFKEELELFAHQEIVITDRWHAMVFSVLTGTPCLLFGNSYGKGKHAYFDWLEHINWIAYTDEEDLDRIDQQIQRLIKTKEHAYDIRPDFKQLHDLIKLHSKK”: the “soluble on expression in E. coli” value is recorded as “not soluble”.
As to “MGSDKIHHHHHHMTSAANLVRITQPAISRLIRDLEEEIGISLFERTGNRLRPTREAGILFKEVSRHFNGIQHIDKVAAELKKSHMGSLRVACYTAPALSFMSGVIQTFIADRPDVSVYLDTVPSQTVLELVSLQHYDLGISILAGDYPGLTTEPVPSFRAVCLLPPGHRLEDKETVHATDLEGESLICLSPVSLLRMQTDAALDSCGVHCNRRIESSLALNLCDLVSRGMGVGIVDPFTADYYSANPVIQRSFDPVVPYHFAIVLPTDSPPPRLVSEFRAALLDALKALPYETI”, the “soluble on expression in E. coli” value is given as “not soluble”.
On to “MIRYWKLLFSLAVASVLLVGCGTKEHETTQAAKEEQTADDQKPSSDAPSSKNPSPSKEAKEQTSTKKNEEEQRAAGGGQPAASQPTISLSYQDGNQTVTKTATLQTSNNQHFSLYVLEGWTLDAEEPGADVLLHGDAFARIRLLSEGETNYEQLAQEHAQAVDANAARQQTNGLPKPFADAVWYTAQADGVTVHVIASAQPTPMLLTVHAPSNEDVLGAVLAMAATLQKQ”, for which the “soluble on expression in E. coli” value is “not soluble”.
Regarding “MKLSHDCIRDILLFSESLPYNEPAFGDKIFKSDLLKKYSSEEINYAVSKLGDDDAQLIKGYVKFASNKPYMTCISSLTFDGHKYLDNIRDPKIWKESKKISSKLASVSIDIMSEIAAKVITKTLGLD”, the “soluble on expression in E. coli” value is reported as “not soluble”.
Consider “MGLNIGDLLGSTPAKDQGCSRTCESQFCTIAPLLRYGKYCGILYSGCPGERPCDALDACCMVHDHCVDTHNDDYLNTMCNENLLSCIDRVSGATFPGNKCNVGQTASVIRGVIETAVFAGKILHKRDDGQ”, for which the “soluble on expression in E. coli” value is listed as “soluble”.
Take “MNIRNARPEDLMNMQHCNLLCLPENYQMKYYFYHGLSWPQLSYIAEDENGKIVGYVLAKMEEDPDDVPHGHITSLAVKRSHRRLGLAQKLMDQASRAMIENFNAKYVSLHVRKSNRAALHLYSNTLNFQISEVEPKYYADGEDAYAMKRDLTQMADEPASGPGSSCLLSGDLGPVSFHPLPSGLLAAAEAAPGAEGKGQAHGSGGLGEQSGEQRQRAFELRRGLS”: the “soluble on expression in E. coli” value is listed as “soluble”.
For “MSLTDDRYTVISADCHAGADLLDYRPYLAKRHHDAFDAWAATYVNPYEDLLADTADRNWNSERRLAELAADGIVAEVVFPNTIPPFFPSASLMAPAPTAAEFEQRWAGLRAHNRWLADFCAAAPGRRAGVFQILLNDVEEAVKEISWAAGAGLRGGLLLPGTPPGSGLPELYSKAYDPIWAVCEELDVPVNHHAGSASPPLGDEPAARAVFMVETTWFSHRALWHLVFGGAFRRHPGLRLVLTEQGSGWIPGVLDMLDYYHGRLVAAGPKSATAEAKFGAGLDRAMGKGPSEVWRDNCFVGASFMRPHEVPLRDRIGLDKIMWGSDYPHDEGTYPYSREGLRIAYAGLPRTEIAAMAGGNAARVYGFDLSEGHHHHHH”, the “soluble on expression in E. coli” value is on record as “soluble”.
With “MGSDKIHHHHHHMEKFKGALVVGALRLFALLPWRAVQGVGAGIGWLMWKLPNRSREVVRINLSKCFPELSETELEKLVGQSLMDIGRTLTESACAWIWPPEKSLRYIREVEGMEVLEEALASGDGLVGITSHLGNWEVLNHFYCSYAKPIIFYRPPKLKAVDELLKKQRVQLGNRVAPSTPEGILSVIKEVKKGGCVGIPADPEPARTAGLFVPYLGTTALISKFVPQLLSRGKARGVFFHAVRLPDGSGYKVILEAAPADMYDKDLEVSVAAMSRELAKYVRAYPSQYMWSMKRFKNRPDGEKKWY”, the “soluble on expression in E. coli” value is “not soluble”.
As for “GSEEHCAPNKEPVKYGELVVLGYNGALPNGDRGRRKSRFALYKRPKANGVKPSTVHVISTPQASKAISCKGQHSISYTLSRNQTVVVEYTHDKDTDMFQVGRSTESPIDFVVTDTISGSQNTDEAQITQSTISRFACRIVCDRNEPYTARIFAAGFDSSKNIFLGEKAAKWKNPDGHMDGLTTNGVLVMHPRGGFTEESQPGVWREISVCGDVYTLRETRSAQQRGKLVESETNVLQDGSLIDLCGATLLWRTADGLFHTPTQKHIEALRQEINAARPQCPVGLN”, the “soluble on expression in E. coli” value is “soluble”.
Turning to “MQIFPYSDDPNKRYHTWNYALRQQFGEKIFKVPIDGGFDCPNRDGTVAKGGCTFCSVSGSGDMIVAPSDPLPLQFQKEIQLMHQKWPTVDQYIVYFQNFTNTHAPVDVIRHRFEQVVNEKGVVGLSIGTRPDCLPDEVVNYLAELNERFYLWVELGLQTTFEETSAAINRAHDYQTYLDGVAKLRKHGIRVCTHLINGLPGETPAMMRENVRRTIQDSDIQGIKLHLLHLMTNTKMMRDYNEGRLQLMSKEAYVSVICDQLEMIPPEIVIHRLTGDAPFETIIGPMWSLKKWEVLNAIDAEMKRRNSYQGKYTVISGKEVFN”, the “soluble on expression in E. coli” value is “not soluble”.
Regarding “MGSDKIHHHHHHMIITVINGSPRKNGATSKVLTYLYKDIERLIPDVKINYFDLSEVNPSYCIGCLNCYKMGKCINQNDKVEYIHDIITKSDGVIFGSPTYGSSVTGLFKVFTDRAHMMLERLLYRKPCIAVTTYENARGSKAISFIKSMVLDSGGYVCGSLSIKTGFNQNPITEKVESKIQKVSKKFIYCIEEKKNPPVLSQIYNFIAINAVLKPMAFKDIEQYKGIIDRWEEQGII”, the “soluble on expression in E. coli” value is “not soluble”.
In the case of “MHHHHHHSSGVDLGTENLYFQSMKSVHSSPQNTSHTIMTFYPTMEEFADFNTYVAYMESQGAHQAGLAKVIPPKEWKARQMYDDIEDILIATPLQQVTSGQGGVFTQYHKKKKAMRVGQYRRLANSKKYQTPPHQNFADLEQRYWKSHPGNPPIYGADISGSLFEESTKQWNLGHLGTILDLLEQECGVVIEGVNTPYLYFGMWKTTFAWHTEDMDLYSINYLHFGEPKTWYVVPPEHGQHLERLARELFPDISRGCEAFLRHKVALISPTVLKENGIPFNCMTQEAGEFMVTFPYGYHAGFNHGFNCAEAINFATPRWIDYGKMASQCSCGESTVTFSMDPFVRIVQPESYELWKHR”, the “soluble on expression in E. coli” value was “soluble”.
As for “MGSMRICIFMARGLEGCGVTKFSLEQRDWFIKNGHEVTLVYAKDKSFTRTSSHDHKSFSIPVILAKEYDKALKLVNDCDILIINSVPATSVQEATINNYKKLLDNIKPSIRVVVYQHDHSVLSLRRNLGLEETVRRADVIFSHSDNGDFNKVLMKEWYPETVSLFDDIEEAPTVYNFQPPMDIVKVRSTYWKDVSEINMNINRWIGRTTTWKGFYQMFDFHEKFLKPAGKSTVMEGLERSPAFIAIKEKGIPYEYYGNREIDKMNLAPNQPAQILDCYINSEMLERMSKSGFGYQLSKLNQKYLQRSLEYTHLELGACGTIPVFWKSTGENLKFRVDNTPLTSHDSGIIWFDENDMESTFERIKELSSDRALYDREREKAYEFLYQHQDSSFCFKEQFDIITK”, the “soluble on expression in E. coli” value is “soluble”.
On to “MGSDKIHHHHHHMKNLRLTLAVIAGKILIYISRLLGHQGTSLPGRIARKIYPRILRTLSTNIRREIVVITGTNGKTTTSNMLAEILQQQGYSLVHNRLGANMLSGITTAFIEKSDIYGSRRFDYALLETDEATVPLLLRETRPRLVLITNFFQDQLDRYGEMDHTIKLIQEAVKDQEIEMLLNADDPLTANFEAETGLKCRYYGFDGNSCDSNRSIDSREVRYCAFCGHPLEYEKYHYAQLGQYSCPQCHSCNPERDFTGQELEMSPDIELKVDGMALKSPYQGFHNAYNILAAVSLARLLGVEEENIKKAIASFQPQAGRMEAFFINGKRVVLALVKNPAALNQTLASLIYDPSRKNLFFALNDNAADGRDISWIWDADVELLEYENVMVEQIVCSGQRSGDIALRFKYAGFPQERIRIEAELPRAIELAVQGSAESSYILCSYTALFACQRILREMEKRSGAGEETEKAYQPQS”, for which the “soluble on expression in E. coli” value is “not soluble”.
For “MSGAAKRVATSSVNWSKLAERLVPEHAAELTRVKGVSGTFQSAVSQLPADLPKIDFAALKKALPAHSAVLDSLQKQYESVKIPYGEVPAEYLKEVDQWVDYNNARIKLHEVKVADGLQEAKKVEEKWAKAPPVEHFDRQHFVEYFPAHFYDLRYQNRIPDPCNIGLNETPEIENRFKDYKVLRRADKVDDH”, the “soluble on expression in E. coli” value is recorded as “not soluble”.
Regarding “MFRGIVQGRGVIRSISKSEDSQRHGIAFPEGMFQLVDVDTVMLVNGCSNTVVRILGDMVYFDIDQALGTTTFDGLKEGDQVNLEIHPKFGEVVGRGGLTGNIKGTALVAAIEENDAGFSVLIDIPKGLAENLTVKDDIGIDGISLPITDMSDSIITLNYSRDLLASTNIASLAKDVKVNVEILNEW”, the “soluble on expression in E. coli” value was “soluble”.
Then “MKEAGILFEELVSIMEKLRSPEGCEWDRKQTHESLKPYLIEECYELIEAIDEKNDDMMKEELGDVLLQVVFHAQIARERGAFTIEDVIRTLNEKLIRRHPHVFGDSPGYSYKQWEDIKAQEKGKKKSSRIGEINPLVPALSMARRIQENASQVGFDWKDPEGVYEKIEEELKELKEAKDPRELEEEFGDLLFSIVNLSRFLNVDPESALRKATRKFVERFKKMEELIEKDGLVLEELPIEKLDEYWEKAKGGDET”, with “soluble”.
Consider “MAVELRYDEEAVFLRRVNRFVVEVKSSRGVVRCHLMDTGRIDHLASPGRRGVLIAWLNRLGGKTVCRAQAFKTAGGVVAVVDSRVPNRLFAEAAPMVVGGDASIEAEREVFGSRLDFLISTGRGLWAVEVKGVNLSLDGVGLFPNAPSARAVKHLEVLARLAREGVKPLMAFVALRPDIRVFAPNYRVDRRFASLACTLLRRGLVGMVGIRVSIDLEPGVVRIRPVATAPVQCPPLQPGR”, for which the “soluble on expression in E. coli” value was “soluble”.
“MGSDKIHHHHHHMRVITVAGPPSVGKTSVVVKTATTLAAQGHRLGIVKFDSLSTSDDQVYRRAGLPVVVGLSGNVCPDHFFVSNIDDCVDWGRTHGVDILVAESAGLCNRCSPHVQGVQAICVVDNLSGVHTPRKIGPMLKLADVVVITKGDIVSQAEREVFAYNVRLANPRAQVMQFHGITGQGASDLAARMLCAPVVDALEGRRLRFSMPSAVCPYCIGETAIGVDHQRGNVRKMSFAEPAR”: the “soluble on expression in E. coli” value was “not soluble”.
Then “MEKDISRKIDLLNILIEEKRWFTLFELEKNLNCSSKTIRKDISIINDLLPKTIFIHSKKGKGVKLSLPQNQSISEAISNLLKKSLTFLAIQQLLEERSNTVTSLADKLYLPISSTNIVLKRVSKYIKKFGLSLEKKPLRIVGDEFQIILMFSERYLESYPDTEWPFTEYKEEMLIDYINYIEEKLEIVFYSNDKRRMAFIMTILFKRIKQGHKVKFSEWIIKETMESIYYKKIFEGKNVIKVNKNRSLNIEEQVLLVIMVKLSRYVSKDENNLKQEELVLYKEGESTTYTYVKNFISILEQELKIDLNNNEEFVYGMIEYCREAFHILKFIPILKAPEKDTCKYIKKHYEETFYLVKRAYNKWGAEMKLTDIPDEEIAKVTMRIVAIGKQHNINRKKVLLITGEGKSWEEYMKSRINKRYGDQLKFVGGHAKILNGNTDNIDNIDIDFIITTVPLNFSWKSIVYVSPILQERDFYEIGIFASK”, with “not soluble”; and “MSELVEMEVHGITLDPTTQMPIVVLKGKEDENLILPIWIGAFEANGIAMKLQGVEPPRPMTYELLKNIITEMGGNVEKVVINDLKDSTYYAEIYINQGNNTLVIDSRPSDAINLALRFGAPIYVAEHVLEQSKLPEPEEDEEKKKLREWLENIKPEDFEIGGEKSLEHHHHHH”, with “soluble”.
